Measured values as given in patent US7132278.

T1: AMARA peptide, synthetic substrate NH2-AMARAASAAALARRR-CO2H
T1 chain: AMARAASAAALARRR

B1: human PASK enzyme, wildtype, pre-phosphorylated in the presence of ATP (protein)
chain: MEDGGLTAFEEDQRCLSQSLPLPVSAEGPAAQTTAEPSRSFSSAHRHLSRRNGLSRLCQSRTALSEDRWSSYCLSSLAAQNICTSKLHCPAAPEHTDPSEPRGSVSCCSLLRGLSSGWSSPLLPAPVCNPNKAIFTVDAKTTEILVANDKACGLLGYSSQDLIGQKLTQFFLRSDSDVVEALSEEHMEADGHAAVVFGTVVDIISRSGEKIPVSVWMKRMRQERRLCCVVVLEPVERVSTWVAFQSDGTVTSCDSLFAHLHGYVSGEDVAGQHITDLIPSVQLPPSGQHIPKNLKIQRSVGRARDGTTFPLSLKLKSQPSSEEATTGEAAPVSGYRASVWVFCTISGLITLLPDGTIHGINHSFALTLFGYGKTELLGKNITFLIPGFYSYMDLAYNSSLQLPDLASCLDVGNESGCGERTLDPWQGQDPAEGGQDPRINVVLAGGHVVPRDEIRKLMESQDIFTGTQTELIAGGQLLSCLSPQPAPGVDNVPEGSLPVHGEQALPKDQQITALGREEPVAIESPGQDLLGESRSEPVDVKPFASCEDSEAPVPAEDGGSDAGMCGLCQKAQLERMGVSGPSGSDLWAGAAVAKPQAKGQLAGGSLLMHCPCYGSEWGLWWRSQDLAPSPSGMAGLSFGTPTLDEPWLGVENDREELQTCLIKEQLSQLSLAGALDVPHAELVPTECQAVTAPVSSCDLGGRDLCGGCTGSSSACYALATDLPGGLEAVEAQEVDVNSFSWNLKELFFSDQTDQTSSNCSCATSELRETPSSLAVGSDPDVGSLQEQGSCVLDDRELLLLTGTCVDLGQGRRFRESCVGHDPTEPLEVCLVSSEHYAASDRESPGHVPSTLDAGPEDTCPSAEEPRLNVQVTSTPVIVMRGAAGLQREIQEGAYSGSCHHRDGLRLSIQFEVRRVELQGPTPLFCCWLVKDLLHSQRDSAARTRLFLASLPGSTHSTAAELTGPSLVEVLRARPWFEEPPKAVELEGLAACEGEYSQKYSTMSPLGSGAFGFVWTAVDKEKNKEVVVKFIKKEKVLEDCWIEDPKLGKVTLEIAILSRVEHANIIKVLDIFENQGFFQLVMEKHGSGLDLFAFIDRHPRLDEPLASYIFRQLVSAVGYLRLKDIIHRDIKDENIVIAEDFTIKLIDFGSAAYLERGKLFYTFCGTIEYCAPEVLMGNPYRGPELEMWSLGVTLYTLVFEENPFCELEETVEAAIHPPYLVSKELMSLVSGLLQPVPERRTTLEKLVTDPWVTQPVNLADYTWEEVCRVNKPESGVLSAASLEMGNRSLSDVAQAQELCGGPVPGEAPNGQGCLHPGDPRLLTS
B2: human PASK S1273,77,80A, pre-phosphorylated (protein)
chain: MEDGGLTAFEEDQRCLSQSLPLPVSAEGPAAQTTAEPSRSFSSAHRHLSRRNGLSRLCQSRTALSEDRWSSYCLSSLAAQNICTSKLHCPAAPEHTDPSEPRGSVSCCSLLRGLSSGWSSPLLPAPVCNPNKAIFTVDAKTTEILVANDKACGLLGYSSQDLIGQKLTQFFLRSDSDVVEALSEEHMEADGHAAVVFGTVVDIISRSGEKIPVSVWMKRMRQERRLCCVVVLEPVERVSTWVAFQSDGTVTSCDSLFAHLHGYVSGEDVAGQHITDLIPSVQLPPSGQHIPKNLKIQRSVGRARDGTTFPLSLKLKSQPSSEEATTGEAAPVSGYRASVWVFCTISGLITLLPDGTIHGINHSFALTLFGYGKTELLGKNITFLIPGFYSYMDLAYNSSLQLPDLASCLDVGNESGCGERTLDPWQGQDPAEGGQDPRINVVLAGGHVVPRDEIRKLMESQDIFTGTQTELIAGGQLLSCLSPQPAPGVDNVPEGSLPVHGEQALPKDQQITALGREEPVAIESPGQDLLGESRSEPVDVKPFASCEDSEAPVPAEDGGSDAGMCGLCQKAQLERMGVSGPSGSDLWAGAAVAKPQAKGQLAGGSLLMHCPCYGSEWGLWWRSQDLAPSPSGMAGLSFGTPTLDEPWLGVENDREELQTCLIKEQLSQLSLAGALDVPHAELVPTECQAVTAPVSSCDLGGRDLCGGCTGSSSACYALATDLPGGLEAVEAQEVDVNSFSWNLKELFFSDQTDQTSSNCSCATSELRETPSSLAVGSDPDVGSLQEQGSCVLDDRELLLLTGTCVDLGQGRRFRESCVGHDPTEPLEVCLVSSEHYAASDRESPGHVPSTLDAGPEDTCPSAEEPRLNVQVTSTPVIVMRGAAGLQREIQEGAYSGSCHHRDGLRLSIQFEVRRVELQGPTPLFCCWLVKDLLHSQRDSAARTRLFLASLPGSTHSTAAELTGPSLVEVLRARPWFEEPPKAVELEGLAACEGEYSQKYSTMSPLGSGAFGFVWTAVDKEKNKEVVVKFIKKEKVLEDCWIEDPKLGKVTLEIAILSRVEHANIIKVLDIFENQGFFQLVMEKHGSGLDLFAFIDRHPRLDEPLASYIFRQLVSAVGYLRLKDIIHRDIKDENIVIAEDFTIKLIDFGSAAYLERGKLFYTFCGTIEYCAPEVLMGNPYRGPELEMWSLGVTLYTLVFEENPFCELEETVEAAIHPPYLVSKELMSLVSGLLQPVPERRTTLEKLVTDPWVTQPVNLADYTWEEVCRVNKPEAGVLAAAALEMGNRSLSDVAQAQELCGGPVPGEAPNGQGCLHPGDPRLLTS
B3: human PASK S1149A, pre-phosphorylated (protein)
chain: MEDGGLTAFEEDQRCLSQSLPLPVSAEGPAAQTTAEPSRSFSSAHRHLSRRNGLSRLCQSRTALSEDRWSSYCLSSLAAQNICTSKLHCPAAPEHTDPSEPRGSVSCCSLLRGLSSGWSSPLLPAPVCNPNKAIFTVDAKTTEILVANDKACGLLGYSSQDLIGQKLTQFFLRSDSDVVEALSEEHMEADGHAAVVFGTVVDIISRSGEKIPVSVWMKRMRQERRLCCVVVLEPVERVSTWVAFQSDGTVTSCDSLFAHLHGYVSGEDVAGQHITDLIPSVQLPPSGQHIPKNLKIQRSVGRARDGTTFPLSLKLKSQPSSEEATTGEAAPVSGYRASVWVFCTISGLITLLPDGTIHGINHSFALTLFGYGKTELLGKNITFLIPGFYSYMDLAYNSSLQLPDLASCLDVGNESGCGERTLDPWQGQDPAEGGQDPRINVVLAGGHVVPRDEIRKLMESQDIFTGTQTELIAGGQLLSCLSPQPAPGVDNVPEGSLPVHGEQALPKDQQITALGREEPVAIESPGQDLLGESRSEPVDVKPFASCEDSEAPVPAEDGGSDAGMCGLCQKAQLERMGVSGPSGSDLWAGAAVAKPQAKGQLAGGSLLMHCPCYGSEWGLWWRSQDLAPSPSGMAGLSFGTPTLDEPWLGVENDREELQTCLIKEQLSQLSLAGALDVPHAELVPTECQAVTAPVSSCDLGGRDLCGGCTGSSSACYALATDLPGGLEAVEAQEVDVNSFSWNLKELFFSDQTDQTSSNCSCATSELRETPSSLAVGSDPDVGSLQEQGSCVLDDRELLLLTGTCVDLGQGRRFRESCVGHDPTEPLEVCLVSSEHYAASDRESPGHVPSTLDAGPEDTCPSAEEPRLNVQVTSTPVIVMRGAAGLQREIQEGAYSGSCHHRDGLRLSIQFEVRRVELQGPTPLFCCWLVKDLLHSQRDSAARTRLFLASLPGSTHSTAAELTGPSLVEVLRARPWFEEPPKAVELEGLAACEGEYSQKYSTMSPLGSGAFGFVWTAVDKEKNKEVVVKFIKKEKVLEDCWIEDPKLGKVTLEIAILSRVEHANIIKVLDIFENQGFFQLVMEKHGSGLDLFAFIDRHPRLDEPLASYIFRQLVSAVGYLRLKDIIHRDIKDENIVIAEDFTIKLIDFGAAAYLERGKLFYTFCGTIEYCAPEVLMGNPYRGPELEMWSLGVTLYTLVFEENPFCELEETVEAAIHPPYLVSKELMSLVSGLLQPVPERRTTLEKLVTDPWVTQPVNLADYTWEEVCRVNKPESGVLSAASLEMGNRSLSDVAQAQELCGGPVPGEAPNGQGCLHPGDPRLLTS
B4: human PASK enzyme, wildtype, untreated (unmodified, as purified from baculovirus-infected Sf-9 cells) (protein)
chain: MEDGGLTAFEEDQRCLSQSLPLPVSAEGPAAQTTAEPSRSFSSAHRHLSRRNGLSRLCQSRTALSEDRWSSYCLSSLAAQNICTSKLHCPAAPEHTDPSEPRGSVSCCSLLRGLSSGWSSPLLPAPVCNPNKAIFTVDAKTTEILVANDKACGLLGYSSQDLIGQKLTQFFLRSDSDVVEALSEEHMEADGHAAVVFGTVVDIISRSGEKIPVSVWMKRMRQERRLCCVVVLEPVERVSTWVAFQSDGTVTSCDSLFAHLHGYVSGEDVAGQHITDLIPSVQLPPSGQHIPKNLKIQRSVGRARDGTTFPLSLKLKSQPSSEEATTGEAAPVSGYRASVWVFCTISGLITLLPDGTIHGINHSFALTLFGYGKTELLGKNITFLIPGFYSYMDLAYNSSLQLPDLASCLDVGNESGCGERTLDPWQGQDPAEGGQDPRINVVLAGGHVVPRDEIRKLMESQDIFTGTQTELIAGGQLLSCLSPQPAPGVDNVPEGSLPVHGEQALPKDQQITALGREEPVAIESPGQDLLGESRSEPVDVKPFASCEDSEAPVPAEDGGSDAGMCGLCQKAQLERMGVSGPSGSDLWAGAAVAKPQAKGQLAGGSLLMHCPCYGSEWGLWWRSQDLAPSPSGMAGLSFGTPTLDEPWLGVENDREELQTCLIKEQLSQLSLAGALDVPHAELVPTECQAVTAPVSSCDLGGRDLCGGCTGSSSACYALATDLPGGLEAVEAQEVDVNSFSWNLKELFFSDQTDQTSSNCSCATSELRETPSSLAVGSDPDVGSLQEQGSCVLDDRELLLLTGTCVDLGQGRRFRESCVGHDPTEPLEVCLVSSEHYAASDRESPGHVPSTLDAGPEDTCPSAEEPRLNVQVTSTPVIVMRGAAGLQREIQEGAYSGSCHHRDGLRLSIQFEVRRVELQGPTPLFCCWLVKDLLHSQRDSAARTRLFLASLPGSTHSTAAELTGPSLVEVLRARPWFEEPPKAVELEGLAACEGEYSQKYSTMSPLGSGAFGFVWTAVDKEKNKEVVVKFIKKEKVLEDCWIEDPKLGKVTLEIAILSRVEHANIIKVLDIFENQGFFQLVMEKHGSGLDLFAFIDRHPRLDEPLASYIFRQLVSAVGYLRLKDIIHRDIKDENIVIAEDFTIKLIDFGSAAYLERGKLFYTFCGTIEYCAPEVLMGNPYRGPELEMWSLGVTLYTLVFEENPFCELEETVEAAIHPPYLVSKELMSLVSGLLQPVPERRTTLEKLVTDPWVTQPVNLADYTWEEVCRVNKPESGVLSAASLEMGNRSLSDVAQAQELCGGPVPGEAPNGQGCLHPGDPRLLTS

Biological target: T1, AMARA peptide, synthetic substrate …

| Protein | Km (mM), pre-phosphorylated [mM] | fold lower Km for substrate than the unmodified enzyme | Km (mM), untreated [mM] |
| --- | --- | --- | --- |
| B1 | 0.2 | 6.5-fold lower Km for substrate than the unmodified enzyme |  |
| B2 | 0.3 |  |  |
| B3 | 0.6 |  |  |
| B4 |  |  | 1.3 |
